Test results as given in publication PMC2655673.

Assays:
Assay in all cases: SFM DNA tethering
[1] = molecular target: RAD50;NBS1 (Homo sapiens;Homo sapiens) (UniProt Q92878+O60934)
[2] = molecular target: RAD50;MRE11;NBS1 (Homo sapiens;Homo sapiens;Homo sapiens) (UniProt Q92878+P49959+O60934)
[3] = molecular target: RAD50;MRE11 (Homo sapiens;Homo sapiens) (UniProt Q92878+P49959)

3.0-kb linear DNA fragment was tested, and the binding signal (% DNA in tethered complexes) [1] was 30, the binding signal (% DNA in tethered complexes) [2] was 20 and the binding signal (% DNA in tethered complexes) [3] was 16.
